# In PMC12416549 (2024):
# Changes are numbered by the printed parent chain. Names and notes keep the numbering of the source.
# T1: TNFR1 (Homo sapiens, UniProt P19438)
# T1 chain: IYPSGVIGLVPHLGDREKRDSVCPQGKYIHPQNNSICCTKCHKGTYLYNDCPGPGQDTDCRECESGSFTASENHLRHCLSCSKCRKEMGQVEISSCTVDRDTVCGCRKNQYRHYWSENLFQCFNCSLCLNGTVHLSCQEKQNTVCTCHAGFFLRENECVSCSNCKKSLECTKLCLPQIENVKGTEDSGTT
# B1: R65P (designed binder)
# chain: SMEEEVEKAAKEYEKKKKEAIEKHLEKLKAKDKEAAERFLKELEEAAKEYAKDEAKTMSEEEAKPRAKKYKEKVLLSELSEEEQKEIKEAEEKLVRTILKYVEEAAK
# B2: A63Y (designed binder)
# chain: B1 chain with A63Y, P65R
# B3: Y50A (designed binder)
# chain: B1 chain with Y50A, P65R
# B4: K68H (designed binder)
# chain: B1 chain with P65R, K68H
# B5: R65W (designed binder)
# chain: B1 chain with P65W
# B6: R66D (designed binder)
# chain: B1 chain with P65R, R66D
# B7: Y13P (designed binder)
# chain: B1 chain with Y13P, P65R
# B8: A63V (designed binder)
# chain: B1 chain with A63V, P65R
# B9: E103W (designed binder)
# chain: B1 chain with P65R, E103W
# B10: V95D (designed binder)
# chain: B1 chain with P65R, V95D
# B11: E5L (designed binder)
# chain: B1 chain with E5L, P65R
# B12: K64C (designed binder)
# chain: B1 chain with K64C, P65R
# B13: E61S (designed binder)
# chain: B1 chain with E61S, P65R
# B14: V95L (designed binder)
# chain: B1 chain with P65R, V95L
# B15: E91W (designed binder)
# chain: B1 chain with P65R, E91W
# B16: L94K (designed binder)
# chain: B1 chain with P65R, L94K
# B17: E7V (designed binder)
# chain: B1 chain with E7V, P65R
# B18: L43F (designed binder)
# chain: B1 chain with L43F, P65R
# B19: E45M (designed binder)
# chain: B1 chain with E45M, P65R
# B20: A67E (designed binder)
# chain: B1 chain with P65R, A67E
# B21: M2F (designed binder)
# chain: B1 chain with M2F, P65R
# B22: E72M (designed binder)
# chain: B1 chain with P65R, E72M
# B23: A10Q (designed binder)
# chain: B1 chain with A10Q, P65R
# B24: E5I (designed binder)
# chain: B1 chain with E5I, P65R
# B25: L94F (designed binder)
# chain: B1 chain with P65R, L94F
# B26: A105D (designed binder)
# chain: B1 chain with P65R, A105D
# B27: L99I (designed binder)
# chain: B1 chain with P65R, L99I
# B28: E49Y (designed binder)
# chain: B1 chain with E49Y, P65R
# B29: L99S (designed binder)
# chain: B1 chain with P65R, L99S
# B30: V74T (designed binder)
# chain: B1 chain with P65R, V74T
# B31: E44Y (designed binder)
# chain: B1 chain with E44Y, P65R
# B32: E14A (designed binder)
# chain: B1 chain with E14A, P65R
# B33: E62I (designed binder)
# chain: B1 chain with E62I, P65R
# B34: D53H (designed binder)
# chain: B1 chain with D53H, P65R
# B35: K8R (designed binder)
# chain: B1 chain with K8R, P65R
# B36: T57S (designed binder)
# chain: B1 chain with T57S, P65R
# B37: R65T (designed binder)
# chain: B1 chain with P65T
# B38: D32R (designed binder)
# chain: B1 chain with D32R, P65R
# B39: E5H (designed binder)
# chain: B1 chain with E5H, P65R
# B40: A46W (designed binder)
# chain: B1 chain with A46W, P65R
# B41: E82W (designed binder)
# chain: B1 chain with P65R, E82W
# B42: L76V (designed binder)
# chain: B1 chain with P65R, L76V
# B43: M2S (designed binder)
# chain: B1 chain with M2S, P65R
# Target: T1, TNFR1
# Experiment: yeast display SC50
row,apparent Kd (screen),Binder
1,20.2 nM,B1
2,12.5 nM,B2
3,29.5 nM,B3
4,1.4 nM,B4
5,11.4 nM,B5
6,0.593 nM,B6
7,13.8 nM,B7
8,15.2 nM,B8
9,0.869 nM,B9
10,5.84 nM,B10
11,0.49 nM,B11
12,0.79 nM,B12
13,1.4 nM,B13
14,7.07 nM,B14
15,6.43 nM,B15
16,1.4 nM,B16
17,7.78 nM,B17
18,13.8 nM,B18
19,1.69 nM,B19
20,15.2 nM,B20
21,1.05 nM,B21
22,1.69 nM,B22

row,apparent Kd (screen),Binder
1,1.4 nM,B23
2,0.653 nM,B24
3,0.446 nM,B25
4,0.446 nM,B26
5,2.05 nM,B27
6,26.9 nM,B28
7,11.4 nM,B29
8,16.7 nM,B30
9,1.54 nM,B31
10,3 nM,B32
11,2.73 nM,B33
12,1.69 nM,B34
13,0.869 nM,B35
14,1.27 nM,B36
15,2.05 nM,B37
16,3.99 nM,B38
17,0.446 nM,B39
18,2.25 nM,B40
19,0.539 nM,B41
20,1.4 nM,B42
21,0.446 nM,B43
